# Experimental data from article PMC6374916.
# Columns and labels:
# [1] = target: K18 ΔK280 tau oligomers, dual-labeled (tau-AF488/AF647 coaggregates); test: single-molecule TIRF microscopy colocalisation; dual-labeled tau oligomers produced (heparin, 45 min, 37 °C) in the presence of 2 uM Hsp70-AF405 (1:5 Hsp70/tau), diluted into 0.05 M ammonium acetate pH 7 to 50–200 pM tau, adsorbed onto a glass cover slide for 15 min
# [2] = target: K18 ΔK280 tau-AF488 oligomers, large (10-mers and higher, apparent size); test: FRET or BRET; smFRET saturation binding, pseudo-equilibrium, apparent constants; 100 nM tau-AF488 oligomers or 1200 nM fibrils (initial monomer concentration; donor) mixed with 0.5 nM to 10 uM Hsp70-AF647 (acceptor), 5 min on ice, then diluted to 200 pM tau and read on a confocal setup; oligomer size classes by fluorescence intensity
# [3] = target: K18 ΔK280 tau-AF488 fibrils; test: as above
Substance,stoichiometry N (Hsp70 molecules per tau monomer) [1],Kd [2] [nM],Kd [3] [nM]
Hsp70 labeled with Alexa Fluor 405 (from UniProt P0DMV8 1-641) (natural protein),0.5,–,–
Hsp70 labeled with Alexa Fluor 647 (from UniProt P0DMV8 1-641) (natural protein),–,170,19
